# Experiment: soluble on expression in E. coli; label from the status in PepcDB or PDB records
row,Sequence,soluble on expression in E. coli
1,MNSRQQTILQMVIDQGQVSVTDLAKATGVSEVTIRQDLNTLEKLSYLRRAHGFAVSLDSDDVETRMMSNYTLKRELAEFAASLVQPGETIFIENGSSNALLARTLGEQKKNVTIITVSSYIAHLLKDAPCEVILLGGVYQKKSESMVGPLTRQCIQQVHFSKAFIGIDGWQPETGFTGRDMMRTDVVNAVLEKECEAIVLTDSSKFGAVHSYSIGPVERFNRVITDSKIRASDLMHLEHSKLTIHVVDILEHHHHHH,soluble
2,MNSSKAGGCHGINDIKVKTAKPKDKPYKLADGGGMYLLINTNGSKYWRMKYRFAGKEKMLSIGVYPDVTLADAREKRSEARKLLAAGGDPGEAKKEEKIAQQMSLKNTFEAIAREWHQLKADRWSLRYRDEIIDTFEKDIFPYIGKRPIAEIKPMKLLEALRKMEKRGALEKMRKVRQRCGEVFRYAIVTGRADYNPAPDLASALATPKKVHFPFLTANELPHFLNDLAGYTGSIITKTATQIIMLTGVRTQELRFARWEDIDFETKLWEIPAEVMKMKRPHIVPLSEQVIMLFKQLEPISKHHPLVFIGRNDPRKPISKESINQVIELLGYKGRLTGHGFRHTMSTILHEQGFNSAWIEMQLAHVDKNSIRGTYNHALYLDGRREMMQWYADYIDSLSSRES,not soluble
3,MNSSLKNLLNNKILVLDGAMGTCIQSFNLDEGDFKGSLSCTCHSNQKGNNDVLNLTKPEIIKEIHKRYLEAGADIIETNTFNATEISQKDYNMQDKIYDINFKGAKLAKEACTYYTKLNPNKPRFAAGSIGPTNRTASLSPDVENPGFRNVTFDELCNAYKHQIEALIDGGVDLLLIETIFDTLNARAAIFAAETVFENKKIKLPIIISGTIADKSGRILSGQTLDAFAESLKNENIIAIGLNCSFGAEELIPFIKRLSETQNRYISFHPNAGLPNSLGEYEELPEETASIVKKLALEGHLNIVGGCCGTTPEHIRAISSVVKGISPRKVPNLEPKTIYSGLENIKIDKNSNFINIG,not soluble
4,MNTEKSEKCINVAPSGIRRMKKIHQMEIAQLFEYRRNCLGEKRTAVENVINAKVVAWNLAVVRRRHYFDLHGMTPQGAVDFVAQIVEGRRPGYIKLETGRGNHSKDNIPAIQNRLLQDFGNLSGFQIAIDPSNLGVLILSFQ,not soluble
5,MNTGHHKVADTLIDFLHRQFPWVESKKIDFLSYCNELMEKMVSGAYLRWIRSHPASYHRVYKTFMYEESLRLEFVSFEPWLPYFEGKMKKMLEQERPDLIVCTHSFPSRILQQLKRKKVLAIPVVNVYTDFFMNSIWGKRFIDYHFVPHQEAKRELIVKHGIDERRIVVTGIPVHDTFMKAAALEHHHHHH,not soluble
6,MNTISGTHFNYHQVCRRKLWLFSAGITMEHTSDLVYEGKLIHETTYQQRPERYQELELDGIKIDFYDAKNRVVHEVKKSNKISPAHRLQLLYYLYVLERNGVLGATGILEYPTLRKKEEVILSDIDRERIREIEQEILQIISHEDCPPVIDSGICKNCSYYEFCFSGEEQ,not soluble
7,MNTMNSVLKYKELALYGGSFDPLHKAHLAIIEQTLELLPSAKLIVLPAYQNPFKKPCFLDAQTRFKELERALKGIDRVLLSDFEIKQERAVPTIESVLHFQKLYHPQTLYLVIGADCLRHLSSWTNAKELLKRVELVVFERIGYEEIQFKGHYHPLKGIDAPISSSAIRASLGV,not soluble
8,MNTRQLLSVGIDIGTTTTQVIFSRLELVNRAAVSQVPRYEFIKRDISWQSPVFFTPVDKQGGLKEVELKALILAQYQAAGIAPESVDSGAIIITGESAKTRNARPAVMALSQSLGDFVVASAGPHLESVIAGHGAGAQSLSEQRMCRVLNIDIGGGTSNYALFDAGKVSGTACLNVGGRLLETDAQGRVVYAHQPGQMIIDEVFGSGTDARALAAAQLGQVARRMADLIVEVITGALSPLAQSLMQTGLLPADITPEVITLSGGVGECYRNQPADPFCFSDIGPLLATALHEHPRLREMNVQFPAQTVRATVIGAGAHTLSLSGSTIWLEDVQLPLRNLPVAIPQDDADLVNAWRQALLQLDLDPQTDAYVLALPATLPVRYAALLTVINALTAFVARYPNPHPLLVVAEQDFGKALGMLLRPQLPQLPLAVIDEVVVRAGDYIDIGTPLFGGSVVPVTVKSLAFPS,not soluble
9,MNVEKLKKMKGKEKIVMVTAYDAPSARIARDAGIDVILVGDSLGNNVLGYENTIPVTMEEMLIHVAAVKRGAPDAFIVADMPFLSYQTSVEKAVENAGKFLKVGANAVKIEGGEEFGELVQKLVESGIPVMGHIGLTPQFVNRFGGYRVQGKTEKNREYLLRSARELEKRGAFAIVLELVVEEVAKEITESVSIPTIGIGSGRFCDGQVLVWHDLLGLNPDFAPRFSKKYANLYEVILKALQEFRREVKKGLFPTEEHSFTDKSKGGVSS,soluble
10,MNVKEVVTEEQLHDVLPVLQQLRTKLSKEETSSLFRNMKEENYKLFSLRNEDDEVVSLAGVAICTNFYNKKHVFVYDLVTAEAHRSKRHGKVLLSYIENWGKENECESIVLTSAFSRIDAHRFYEREGYDKVSYSFHKEL,not soluble
11,MNVKSRQQENAEATREALLESALSAFIEHGYGGVSIDAIAREARVTKGAFYHHFGSKQELLAECYERQVRTIAEDLDRVPAHVDKWAEAAALAEAFIDSVMARGKRQLSLQEVITVVGWERWKRIDSRHTLRYVGRLVDELAASGELKDYRRETLVGQLYGFLTQAAMSLRDARNKRQAANEVKAIIRDFLYSLRRG,not soluble
12,MNVQETYLKELKARGYQPDEAQQRAVDRLQLCYDEWVAYKARRSSALRKLLVRPELPRGVYMWGGVGRGKSFLMDAFYSCVPVVRKTRLHFHEFMREVHRQLEELRGRADPLDELARRIAKRYRLICFDEFHVSDVADAMILHRLLDQLFANGVQFVMTSNYRPDLLYPDGLHRDRVLPAIALLQEKLDVLNVDAGIDYRKRAMEQVQAYHTPLGAQANSALRDAFAAVAEAPDESPILHIEHREIRAQRKAGGVVWFDFATLCGGPRSQNDYLEIAARFHTVILADVPKMTPRMASEARRFTWLIDVLYDHKVKLLMSAEVPADALYTEGQMANEFHRTVSRIIEMQSREYLEAPRRAVDTTLTLEHHHHHH,not soluble
13,MNVTVAPQDETLSARAGRVATIAAKHADDVDVTGRFPQEAVDALRRERLLGIQVPSSLGGEGASIQEIADICARLGQACSATAMIFAMHHIKLSSLVEHGVDSTWHPGFMRRVAGEQLLLGSATTEGGIGGNLRNSICAIEVEGDSCRLEKDATVISYGSNADAILITSRAHKDAAPADQVMTVFLKNQYTLEKTHVWDTLGMRGTCSDGFLFRGEAPAAQIFPKPFAEIAAQSMLASSHLLWSAVWYGIASDAVLRAQSFVRAAARKSPGTAPPGAIRLAEVSTKLQVVKSNIIAGIKAYEDTKSDPEKLMSMAFAVAMNNVKICSSETILEIIDHAMLVCGIMGYKNGTPYSLGRHLRDAHSARLMISNDRILGNSANLLLVHRQDTSLLG,soluble
14,MNWYEKLSEYFPIEEMKSKAHMEALLKERSDIYHKDEGKHHILMFAEFDSFIFVDYLYVSKDARGQGLGGKLIAKLKKKNKPILLEVEPVDEDDTDTEKRLRFYQREHFKHAQSIGYRRRSLATNEVNKIEILYWSPKTESEEEILEAMKQTYENIHTYKDEKWYGESYEKTDEVLEIIDEEKQKNIFDQLS,not soluble
15,MNYKVTAEAIPDYQSKNAPISSYWMPDKFLEWSAENDKDLVYNQSRVPLTKRISPDKLSPSNQNQNKKTKIVALSMMNSQTSGNPSRGTTKFESYTFDYWQYIDTLVYWGGSSGEGIIVTPSADVIDEAHSNGVPVLGTIFLPPKEYGGKVDWVKTMLKKDEQGQYPFASQMVKVAKTYGFEGWFINEETQGLNADDAANMKALIQQVKKEDSSLQIMWYDAMTKDGKVDWQNQLNDQNATFVQDKAADAMFLNFWWTQNNLADQKLLEKSNLYAKNHNIDPYNIYAGIDVQAKDVQTPVKWNLLEKGNQATQTSIGLYAASATYTNASNWDDFQNRESAFWVNQKADPRQVDHSVNESWTGLSKYVLEKSAISGNEFNTNFNLGNGYNYFKAGQKISEMDWNDRSLAGILPSYRWIIDNEGKNKISPSFDFANAYNGGNSLKFMAEHLDAGKLEHHHHHH,not soluble
16,MNYMPGTASLIEDIDKKHLVLLRDGRTLIGILRSIDQFANLVLHQTVERIHVGKKFGDIPRGIFVVRGENVVLLGEVDLDKECDQILQRVSIEEILEEQRTEQQAKQESERLKLQAVKERGLSIPKADTLDDF,soluble
17,MNYSACTSILVGPQATMDGSVLIGRNEDAKAAWPKHFIVHPATTVATPPQFVSTDNGFTMPLPTQAAKYTATPEWTDKYGLFEEDGINEYGVAMSATESTYSNERVLGADPLVKDGLGEEAMVTVVLPYVKTAREGVARLGQLIEQYGTNESNGILFADQQEAWYLETGAGHYWVAQRIPANAYAVVANQMAIQAVDFADADNFMFAKNLQAFVTDNHLNPHPDRFIWREIFGTQDQSDLYYNTPRVWYGQKRFTPQVSQEPQSFDLPFIQYADRLLSVGDAQQYLSSHFEETPYDPVGSGTAEQKHRFRPVSLAKTQESHVLQLRPNMTPGLAGIQWLAMGVGAQSVYVPFYAGIDSTPEAYHLGTETYDSKSAYWTYKLVSVLLDAHYHTALPTVSETQKALRIAFKQAVQETDRGAQTLSGTELSRYLTQRSNEVAELGLKRYRELAATLITRATDLGPLNYHQDLNLLEHHHHHH,not soluble
18,MPAHSLSLYQYYRPPLDWQAQLAFYRLRAVAGMEWFSNTDNDCLEKIAQDKQALEYGRTLQIDDIRAVVHIIHEAHLHRFKLTLTFTPDSPIAGLQKLITQVRRILDLDADMQQIEHNLQRLTDLKLIPKSGLRIPGAGSLEHHHHHH,not soluble
19,MPATNDGPDDGAHLSKSEQTRALILETAMRLFQERGYDRTTMRAIAQEAGVSVGNAYYYFAGKEHLIQGFYDRIAAEHRAAVREVLARETDLEARLAGVLKVWLDIATPYHEFAVQFFKNAADPDSPLSPFSPESEHARVEAIGIHRAVLAGAKTKVPEELRDILPELMWLSQMGLVLYWIFDRTEGRERSYRLAERGARLTARGVVLARFRVLRPLVREVHELFTDFLPGMTKVMPDPAKKPTRDAGPQA,soluble
20,MPDQPLNQDGFPTASKGVEPDNLPDRVLVDGLKPKHQQLREILEEICTTQLQPGDMLPGERILEEKYGVSRITVRRAIGDLVASGRLKRARGKGTFVAHSPLISRLHLASFSAEMAAQKLSATSRILSSSRGPAPDDIADFFGTDRAAQHITLRRLRLGNGRPYAIDNGWYNSEFAPDLLENDVYNSVYSILDRVYGVPVTQAEQTVTAVAADEDTARLLDVTPGAPLLRILRQSLSGDKPVEWCVSLYRTDRYSLKTLVTRSEDL,soluble
21,MPEEMDKPLISLHLVDSDSSLAKVPDEAPKVGILGSGDFARSLATRLVGSGFKVVVGSRNPKRTARLFPSAAQVTFQEEAVSSPEVIFVAVFREHYSSLCSLSDQLAGKILVDVSNPTEQEHLQHRESNAEYLASLFPTCTVVKAFNVISAWTLQAGPRDGNRQVPICGDQPEAKRAVSEMALAMGFMPVDMGSLASAWEVEAMPLRLLPAWKVP,soluble
22,MPEISPYVTKTEVQLMMAGLDYRKTNGSRDTAPKGQLPWIVDAAQAIADSTFIRVHIERKYDVDLDFGLTGRERAQAWAIERMIENQLGWVSTYFRFLEPANFERGPARAFDQAPGHLRDELRQGLREAVAANIRAVGVGRHLREEVAWLGGLSLRALDELLEDKAYLMRDAYPVGVDATAFAMLAAIMTPFFDSPLRRQAERYPRLVAYVGRMMERFYPAHPWGLRQAALEHHHHHH,not soluble
23,MPFCPEEFYCRITQNIESLNNIAKIQHAANTDYLTDLANRRAFFRSAESRIKEYINKKVPYCLAMIDVDFFKKVNDTYGHDSGDQVLKVIALYMRKHFGAGLTARLGGEEFAVLLHGLDADYLHNKLDDFRREIAVSSIPAGDTSISITLSLGVVFDSEDELSKQMNEADNALYAAKENGRNQIVVFGAELDDLEHHHHHH,not soluble

# — the DeepSol protein solubility set
